In patent US20170267757A1 one finds absorbance data, which are given here for one substance.

Common to all, as to test: sandwich ELISA, antibody as capture 100 ng/well, CHO-K1 supernatant, anti-human Ig-HRP
On the technique in general: In an ELISA, binding on a coated surface is turned into a signal by an enzyme label.

Assay [1] has as its target CD66c mutant (BI/BHI)-hFc (human).
In assay [2] the target is CD66c mutant (HPK/HdIII/PstI/klenow)-hFc (human).
The target of assay [3] is CD66c-HuIgFc recombinant antigen (human).
Sequence of CD66c-HuIgFc recombinant antigen (human) (chain, as listed by the source limits assumed): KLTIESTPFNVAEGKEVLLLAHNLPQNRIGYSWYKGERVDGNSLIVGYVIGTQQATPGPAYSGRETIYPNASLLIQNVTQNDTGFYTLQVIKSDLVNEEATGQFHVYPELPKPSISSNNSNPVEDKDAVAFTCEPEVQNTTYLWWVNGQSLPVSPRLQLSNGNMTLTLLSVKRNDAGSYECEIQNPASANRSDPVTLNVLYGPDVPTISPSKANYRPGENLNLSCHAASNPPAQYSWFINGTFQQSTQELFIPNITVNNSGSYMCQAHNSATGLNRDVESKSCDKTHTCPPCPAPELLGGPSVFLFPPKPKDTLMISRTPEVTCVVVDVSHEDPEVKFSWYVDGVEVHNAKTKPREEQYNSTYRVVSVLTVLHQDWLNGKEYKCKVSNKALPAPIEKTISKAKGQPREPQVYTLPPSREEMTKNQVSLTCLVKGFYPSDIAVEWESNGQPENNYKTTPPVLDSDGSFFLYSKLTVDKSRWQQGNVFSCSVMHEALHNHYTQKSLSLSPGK

Sequence of CD66c mutant (BI/BHI)-hFc (human) (chain, as listed by the source mutant limits assumed, form in doubt): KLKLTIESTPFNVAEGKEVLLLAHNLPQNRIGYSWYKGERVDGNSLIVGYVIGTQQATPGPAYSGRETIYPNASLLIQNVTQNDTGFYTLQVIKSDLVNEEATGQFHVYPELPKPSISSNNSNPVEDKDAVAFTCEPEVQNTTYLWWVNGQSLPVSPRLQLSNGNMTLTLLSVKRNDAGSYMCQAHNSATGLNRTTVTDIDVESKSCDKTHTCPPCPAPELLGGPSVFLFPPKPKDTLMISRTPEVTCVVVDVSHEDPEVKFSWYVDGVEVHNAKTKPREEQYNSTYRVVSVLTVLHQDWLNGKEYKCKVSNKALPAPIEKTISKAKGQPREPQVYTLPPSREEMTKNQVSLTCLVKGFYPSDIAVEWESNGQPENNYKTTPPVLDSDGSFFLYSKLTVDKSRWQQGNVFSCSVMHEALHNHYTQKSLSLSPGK
Sequence of CD66c mutant (HPK/HdIII/PstI/klenow)-hFc (human) (chain, as listed by the source mutant limits assumed, form in doubt): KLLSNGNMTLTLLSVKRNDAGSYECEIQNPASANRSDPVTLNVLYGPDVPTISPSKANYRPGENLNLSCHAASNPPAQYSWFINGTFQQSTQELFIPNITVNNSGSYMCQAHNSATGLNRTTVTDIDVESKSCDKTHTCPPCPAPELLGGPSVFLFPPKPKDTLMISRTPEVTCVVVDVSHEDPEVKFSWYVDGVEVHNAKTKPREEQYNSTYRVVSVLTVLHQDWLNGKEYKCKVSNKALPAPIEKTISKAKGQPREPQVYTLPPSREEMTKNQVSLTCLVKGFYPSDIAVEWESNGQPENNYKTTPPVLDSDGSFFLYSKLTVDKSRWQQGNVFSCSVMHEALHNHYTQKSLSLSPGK

Consider “9A6 anti-CD66c monoclonal antibody (Santa Cruz)”, for which the absorbance at 450 nm (absorbance at 450 nm) in assay [1] came to 1.92; in assay [2], 0.049; in assay [3], 2.84.
